Source: publication PMC6047819, “Small-angle X-ray scattering study of the kinetics of light-dark transition in a LOV protein” (PLoS ONE, 2018)

Tests used:
[1] = target: the molecule itself; test: SAXS; steady state, fully populated light state (continuous blue-light LED, 450 nm); beamline BM29; 20°C; 10 mM Tris, 10 mM NaCl, pH 7; data of 2.5 and 6.1 mg/mL merged; molecular mass from QR after Rambo and Tainer
[2] = target: the molecule itself; test: crystal structure; dark-state crystal structure of the double mutant, FMN bound (PDB 6GG9)

Protein	stoichiometry N [1]	binding result [2]
PpSB1-LOV-R66I (natural protein, Pseudomonas putida, PpSB1-LOV, short LOV protein of Pseudomonas putida: LOV core domain flanked by N- and C-terminal helices; mutant R66I; It says that the N-terminal 20 and the C-terminal 8-9 amino acids are disordered in the wild-type crystal structures; also called PpSB1-R66I; PpSB1-LOV mutant R66I; source: purified (Ni-NTA Superflow, SEC on Superdex 200)) MINAQLLQSMVDASNDGIVVAEKEGDDTILIYVNAAFEYLTGYSRDEILYQDCRFLQGDDRDQLGIARIRKAMAEGRPCREVLRNYRKDGSAFWNELSITPVKSDFDQRTYFIGIQKDVSRQVELERELAELRARPKPDERA	2	
PpSB1-LOV-R61H/R66I (natural protein, Pseudomonas putida, PpSB1-LOV, short LOV protein of Pseudomonas putida; double mutant R61H/R66I; dark-state crystal structure PDB 6GG9; also called PpSB1-R61H/R66I-LOV; double mutant) MINAQLLQSMVDASNDGIVVAEKEGDDTILIYVNAAFEYLTGYSRDEILYQDCRFLQGDDHDQLGIARIRKAMAEGRPCREVLRNYRKDGSAFWNELSITPVKSDFDQRTYFIGIQKDVSRQVELERELAELRARPKPDERA		binds
